Here are results for 16 variants from the supplement of paper PMC7125110.

The labels stand for the following.
B1: glmS ribozyme (parent)
chain: AUAAAAGCGCCAGAACUACAGAAAUGUAGUUGACGAGGAGGAGGUUUAUCGAAUUUUCGGCGGAUGCCUCCAAA

Common to all, as to details: with glucosamine-6-phosphate
Variants of B1 are the subject of data set [1]. The experiment in a line: kcat; higher = faster cleavage; RNA array. An outline of the steps: (§1)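 kcat and KM were obtained from weighted Michaelis–Menten fits across concentrations of kobs values. Those came from one- or two-exponential decay fits to per-tile medians normalised to baseline and to non-cleaving reference variants. The variants were barcoded ribozymes transcribed in situ by E. coli RNA polymerase on sequenced MiSeq chips and tracked through a hybridised Cy3 probe at 37 °C, with 40 μM to 10 mM glucosamine-6-phosphate in HEPES/KCl/Mg(OAc)2 buffer flowed in.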

The variants in data set [2] derive from B1. The experiment in a line: KM; higher = weaker cofactor use; RNA array. An outline of the steps: as §1
Data set [3] covers variants of B1. The experiment in a line: self-cleavage kobs at 2500 uM GlcN6P; higher = faster cleavage; RNA array. An outline of the steps:
as §1

Data set [4] covers variants of B1. Nature of the data set: self-cleavage kobs at 10000 uM GlcN6P; higher = faster cleavage; RNA array. An outline of the steps: as §1
Data set [5] covers variants of B1. The experiment in a line: self-cleavage kobs at 40 uM GlcN6P; higher = faster cleavage; RNA array. An outline of the steps: as §1
Data set [6] covers variants of B1. The experiment in a line: self-cleavage kobs at 640 uM GlcN6P; higher = faster cleavage; RNA array. In a few lines:
as §1

In data set [7] the parent is B1. Nature of the data set: self-cleavage kobs at 160 uM GlcN6P; higher = faster cleavage; RNA array. In a few lines:
as §1

± gives the standard error. For some assays here: Variants at the floor of the assay were thinned out.

Take U47G U57C: the kcat in the data set with glucosamine-6-phosphate [1] worked out at 0.000206 ± 2.4e-05 s⁻¹. The KM in the data set with glucosamine-6-phosphate [2] is 6430 ± 1500 µM. In the data set with glucosamine-6-phosphate [3], the “self-cleavage kobs at 2500 uM GlcN6P” value was 5.65e-05 ± 1.2e-05 s⁻¹. Besides, the “self-cleavage kobs at 10000 uM GlcN6P” value with glucosamine-6-phosphate [4] was determined as 0.000126 ± 1.3e-05 s⁻¹.
Take A42U G66U: in the data set with glucosamine-6-phosphate [1], the kcat is 6.96e-05 ± 7.8e-06 s⁻¹. In addition, the KM with glucosamine-6-phosphate [2] is 1930 ± 830 µM. Further, the “self-cleavage kobs at 40 uM GlcN6P” value with glucosamine-6-phosphate [5] was under 1e-05 s⁻¹. The “self-cleavage kobs at 2500 uM GlcN6P” value with glucosamine-6-phosphate [3] stood at 4.29e-05 ± 9.1e-06 s⁻¹. Besides, the “self-cleavage kobs at 10000 uM GlcN6P” value with glucosamine-6-phosphate [4] came out at 5.76e-05 ± 6.8e-06 s⁻¹.
For C11U G41U, in the data set with glucosamine-6-phosphate [1], the kcat is 9.92e-05 ± 3.5e-06 s⁻¹. In the data set with glucosamine-6-phosphate [2], the KM is 740 ± 130 µM. Besides, the “self-cleavage kobs at 640 uM GlcN6P” value with glucosamine-6-phosphate [6] came out at 4.38e-05 ± 1.5e-05 s⁻¹. Further, the “self-cleavage kobs at 2500 uM GlcN6P” value in the data set with glucosamine-6-phosphate [3] is 8.28e-05 ± 1.7e-05 s⁻¹. Further, the “self-cleavage kobs at 10000 uM GlcN6P” value with glucosamine-6-phosphate [4] was determined as 9.12e-05 ± 1e-05 s⁻¹.
As for C16A A53U, the kcat in the data set with glucosamine-6-phosphate [1] is 0.00183 ± 0.0008 s⁻¹. For the same variant, the “self-cleavage kobs at 640 uM GlcN6P” value in the data set with glucosamine-6-phosphate [6] was found to be 0.000241 ± 6.3e-05 s⁻¹. Also, the “self-cleavage kobs at 2500 uM GlcN6P” value in the data set with glucosamine-6-phosphate [3] is 0.00116 ± 0.00029 s⁻¹. Moreover, the “self-cleavage kobs at 10000 uM GlcN6P” value with glucosamine-6-phosphate [4] was determined as 0.00118 ± 0.00035 s⁻¹.
With G44A C67A, in the data set with glucosamine-6-phosphate [1], the kcat was 0.0103 ± 0.0048 s⁻¹. The “self-cleavage kobs at 40 uM GlcN6P” value in the data set with glucosamine-6-phosphate [5] was determined as 0.00024 ± 4e-05 s⁻¹. Further, the “self-cleavage kobs at 160 uM GlcN6P” value with glucosamine-6-phosphate [7] was 0.000422 ± 0.00011 s⁻¹. Further, the “self-cleavage kobs at 640 uM GlcN6P” value in the data set with glucosamine-6-phosphate [6] stood at 0.00141 ± 0.00018 s⁻¹. In addition, the “self-cleavage kobs at 2500 uM GlcN6P” value in the data set with glucosamine-6-phosphate [3] was determined as 0.00541 ± 0.00076 s⁻¹. Also, the “self-cleavage kobs at 10000 uM GlcN6P” value in the data set with glucosamine-6-phosphate [4] was determined as 0.00737 ± 0.0013 s⁻¹.
For the variant G41A A42U, in the data set with glucosamine-6-phosphate [1], the kcat is 0.000123 ± 4e-06 s⁻¹. Besides, the Michaelis constant (KM) with glucosamine-6-phosphate [2] came out at 1440 ± 160 µM. For the same variant, in the data set with glucosamine-6-phosphate [6], the “self-cleavage kobs at 640 uM GlcN6P” value is 3.91e-05 ± 1.2e-05 s⁻¹. In the data set with glucosamine-6-phosphate [3], the “self-cleavage kobs at 2500 uM GlcN6P” value turned out to be 7.77e-05 ± 1.3e-05 s⁻¹. Besides, the “self-cleavage kobs at 10000 uM GlcN6P” value with glucosamine-6-phosphate [4] was found to be 0.000108 ± 1.2e-05 s⁻¹.
In the same order, the values of A15G U57C are 0.000143 ± 1.4e-05 s⁻¹, 2200 ± 520 µM, 2.79e-05 ± 9.6e-06 s⁻¹, 8.09e-05 ± 1.2e-05 s⁻¹ and 0.000113 ± 1.7e-05 s⁻¹.
Consider U31A A53G, for which the kcat with glucosamine-6-phosphate [1] is 0.0153 ± 0.0017 s⁻¹. The KM with glucosamine-6-phosphate [2] came out at 1860 ± 270 µM. In the data set with glucosamine-6-phosphate [5], the “self-cleavage kobs at 40 uM GlcN6P” value came out at 0.00035 ± 4.3e-05 s⁻¹. The “self-cleavage kobs at 160 uM GlcN6P” value in the data set with glucosamine-6-phosphate [7] came to 0.00107 ± 0.00018 s⁻¹. The “self-cleavage kobs at 640 uM GlcN6P” value with glucosamine-6-phosphate [6] was found to be 0.0038 ± 0.00071 s⁻¹. Further, in the data set with glucosamine-6-phosphate [3], the “self-cleavage kobs at 2500 uM GlcN6P” value worked out at 0.0096 ± 0.0019 s⁻¹. The “self-cleavage kobs at 10000 uM GlcN6P” value with glucosamine-6-phosphate [4] came out at 0.0127 ± 0.002 s⁻¹.
For G13U A39U, the kcat with glucosamine-6-phosphate [1] came out at 0.0016 ± 0.0003 s⁻¹. The KM with glucosamine-6-phosphate [2] came out at 4770 ± 1400 µM. For the same variant, the “self-cleavage kobs at 40 uM GlcN6P” value with glucosamine-6-phosphate [5] came to 3.33e-05 ± 1.6e-05 s⁻¹. Moreover, in the data set with glucosamine-6-phosphate [7], the “self-cleavage kobs at 160 uM GlcN6P” value turned out to be 4.9e-05 ± 1.9e-05 s⁻¹. Moreover, the “self-cleavage kobs at 640 uM GlcN6P” value with glucosamine-6-phosphate [6] is 0.000197 ± 3.6e-05 s⁻¹. Also, the “self-cleavage kobs at 2500 uM GlcN6P” value with glucosamine-6-phosphate [3] is 0.000513 ± 8.1e-05 s⁻¹. In addition, the “self-cleavage kobs at 10000 uM GlcN6P” value with glucosamine-6-phosphate [4] worked out at 0.00112 ± 0.00016 s⁻¹.
Consider C58G C70G, for which the kcat in the data set with glucosamine-6-phosphate [1] worked out at 5.46e-05 ± 1.6e-05 s⁻¹. Moreover, the “self-cleavage kobs at 160 uM GlcN6P” value in the data set with glucosamine-6-phosphate [7] is 4.69e-05 ± 1.8e-05 s⁻¹. The “self-cleavage kobs at 640 uM GlcN6P” value in the data set with glucosamine-6-phosphate [6] is 7.73e-05 ± 2e-05 s⁻¹. In addition, in the data set with glucosamine-6-phosphate [3], the “self-cleavage kobs at 2500 uM GlcN6P” value is 5.92e-05 ± 1.4e-05 s⁻¹.
For the variant C58G C70U, the catalytic constant (kcat) with glucosamine-6-phosphate [1] is 5.2e-05 ± 3.9e-06 s⁻¹. Also, the KM in the data set with glucosamine-6-phosphate [2] is 230 ± 110 µM. In addition, the “self-cleavage kobs at 160 uM GlcN6P” value with glucosamine-6-phosphate [7] amounted to 2.43e-05 ± 1.1e-05 s⁻¹. In the data set with glucosamine-6-phosphate [6], the “self-cleavage kobs at 640 uM GlcN6P” value came out at 3.07e-05 ± 1.1e-05 s⁻¹. The “self-cleavage kobs at 2500 uM GlcN6P” value with glucosamine-6-phosphate [3] was 5.21e-05 ± 7e-06 s⁻¹. Besides, in the data set with glucosamine-6-phosphate [4], the “self-cleavage kobs at 10000 uM GlcN6P” value worked out at 4.8e-05 ± 7.6e-06 s⁻¹.
As to G59U C70A, the kcat with glucosamine-6-phosphate [1] is 1.64e-05 ± 5.5e-06 s⁻¹.
On to A14G U47A, for which, in the data set with glucosamine-6-phosphate [1], the kcat was determined as 0.00972 ± 0.0015 s⁻¹. Further, the KM with glucosamine-6-phosphate [2] was 275 ± 78 µM. In addition, in the data set with glucosamine-6-phosphate [5], the “self-cleavage kobs at 40 uM GlcN6P” value stood at 0.00113 ± 0.00022 s⁻¹. Moreover, the “self-cleavage kobs at 160 uM GlcN6P” value with glucosamine-6-phosphate [7] came to 0.0041 ± 0.0011 s⁻¹. For the same variant, the “self-cleavage kobs at 640 uM GlcN6P” value with glucosamine-6-phosphate [6] came out at 0.00942 ± 0.0021 s⁻¹. For the same variant, the “self-cleavage kobs at 2500 uM GlcN6P” value with glucosamine-6-phosphate [3] was determined as 0.00943 ± 0.002 s⁻¹. Further, the “self-cleavage kobs at 10000 uM GlcN6P” value in the data set with glucosamine-6-phosphate [4] stood at 0.00772 ± 0.0019 s⁻¹.
As for G51A G66C, the kcat with glucosamine-6-phosphate [1] is under 1e-05 s⁻¹. Moreover, the KM with glucosamine-6-phosphate [2] worked out at 510 ± 240 µM.
On to G9A U47G, for which, in the data set with glucosamine-6-phosphate [1], the kcat was under 1e-05 s⁻¹. In addition, the “self-cleavage kobs at 640 uM GlcN6P” value with glucosamine-6-phosphate [6] is under 1e-05 s⁻¹.
As to G41A U55A, in the data set with glucosamine-6-phosphate [1], the kcat amounted to 6.65e-05 ± 1.1e-05 s⁻¹. Moreover, the “self-cleavage kobs at 160 uM GlcN6P” value with glucosamine-6-phosphate [7] is 4.67e-05 ± 1.4e-05 s⁻¹. Besides, the “self-cleavage kobs at 640 uM GlcN6P” value in the data set with glucosamine-6-phosphate [6] is 6.66e-05 ± 1.1e-05 s⁻¹. Moreover, the “self-cleavage kobs at 2500 uM GlcN6P” value with glucosamine-6-phosphate [3] was found to be 5.75e-05 ± 1.2e-05 s⁻¹.

What is called kcat is the number of substrate molecules converted per active site and unit of time at saturation. By KM is commonly meant the concentration of substrate that gives half-maximal velocity.
